From patent US20220387557A1 (OXFORD UNIVERSITY INNOVATION, published 2022)

T1: Fc tagged human TNFR2 (Sino Biological) (human, UniProt P20333 23-257)
T1 construct: Bought reagent; also called hTNFR2; hTNFR2-Fc; not shown: Fc tag of the bought protein
T1 sequence (looked up): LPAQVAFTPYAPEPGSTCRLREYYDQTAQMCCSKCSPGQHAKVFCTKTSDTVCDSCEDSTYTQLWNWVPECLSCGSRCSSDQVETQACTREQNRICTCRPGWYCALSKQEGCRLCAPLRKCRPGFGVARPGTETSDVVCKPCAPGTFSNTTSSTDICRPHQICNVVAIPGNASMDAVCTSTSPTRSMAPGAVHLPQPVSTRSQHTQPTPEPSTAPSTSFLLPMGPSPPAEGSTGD

T2: Fc tagged mouse TNFR2 (Sino Biological) (mouse, UniProt P25119 23-258)
T2 construct: Bought reagent; also called mTNFR2; mTNF2; not shown: Fc tag of the bought protein
T2 sequence (looked up): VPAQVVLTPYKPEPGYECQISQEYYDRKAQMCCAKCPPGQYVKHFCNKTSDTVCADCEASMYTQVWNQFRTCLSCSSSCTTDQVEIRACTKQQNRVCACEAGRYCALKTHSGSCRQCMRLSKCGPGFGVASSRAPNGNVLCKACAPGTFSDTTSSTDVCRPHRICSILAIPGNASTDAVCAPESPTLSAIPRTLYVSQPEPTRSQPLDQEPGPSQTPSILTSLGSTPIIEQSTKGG

T3: Fc tagged human TNFR1 (Sino Biological) (human, UniProt P19438 22-211, limits assumed)
T3 construct: Bought reagent; also called hTNFR1; hTNFR1-Fc; not shown: Fc tag of the bought protein
T3 sequence (looked up): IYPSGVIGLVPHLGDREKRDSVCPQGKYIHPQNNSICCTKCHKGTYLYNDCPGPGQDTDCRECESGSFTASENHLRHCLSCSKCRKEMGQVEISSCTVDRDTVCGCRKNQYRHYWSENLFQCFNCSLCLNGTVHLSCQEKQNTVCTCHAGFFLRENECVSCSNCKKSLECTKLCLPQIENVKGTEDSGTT

T4: Fc tagged mouse TNFR1 (Sino Biological) (mouse, UniProt P25118 22-212, limits assumed)
T4 construct: Bought reagent; also called mTNFR1; mTNFR1-Fc; not shown: Fc tag of the bought protein
T4 sequence (looked up): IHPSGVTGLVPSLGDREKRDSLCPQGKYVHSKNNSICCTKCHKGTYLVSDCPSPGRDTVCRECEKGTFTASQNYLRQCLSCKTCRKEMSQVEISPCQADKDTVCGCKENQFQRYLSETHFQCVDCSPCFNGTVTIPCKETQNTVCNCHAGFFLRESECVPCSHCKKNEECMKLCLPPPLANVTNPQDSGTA


Legend:
[1] = biological target: T1, Fc tagged human TNFR2 (Sino Biological); experiment: SPR (Biacore T200) single cycle kinetics, Fc-tagged receptor captured on Protein A chip, TNF protein as analyte at 1.67-15 nM
Method: (§1) Single cycle kinetic analysis was performed using a Biacore T200 (serial no. 1909913) running Biacore T200 Evaluation Software V2.0.1 (Uppsala, Sweden). All experiments were run at 25° C. with HBS-P+ running buffer (pH 7.4) (GE Healthcare, Little Chalfont, UK).
(§2) Due to the limit in the number of available flow cells for analysis (three Fc per analysis, Fc2, Fc3 and Fc4, with Fc1 always being used as blank reference for non-specific subtraction), receptor binding was assessed in two separate overlapping runs using either: hTNFR1 (Fc2), hTNFR2 (Fc3) and mTNFR1 (Fc4), or; hTNFR1 (Fc2), […] and mTNFR2 (Fc4). Receptors were diluted in running buffer to a concentration of ˜4 μg/mL and at the start of each cycle loaded onto Fc2, Fc3 and Fc4 of a Protein A chip (GE Healthcare, Little Chalfont, UK) at a flow rate of 10 μL/min to give an RU of 40-100. The surface was then allowed to stabilise. Single cycle kinetic data was obtained at a flow rate of 45 μL/min. […] The association phase for the three injections of increasing concentrations of TNF was monitored for 240 seconds and a single dissociation phase was measured for 2700 seconds following the last injection of TNF. Regeneration of the Protein A surface was conducted using 10 mM glycine-HCl pH 1.5. The signal from the reference channel Fc1 (no receptor) was subtracted from that of Fc2, Fc3 and Fc4 to correct for differences in non-specific binding to a reference surface.
(§3) Controls were used to ensure the integrity of the receptors during the Biacore run.

[2] = biological target: T2, Fc tagged mouse TNFR2 (Sino Biological); experiment: as above
Method: as §1, §2, §3

[3] = biological target: T3, Fc tagged human TNFR1 (Sino Biological); experiment: SPR, Biacore T200 multi cycle kinetics, receptor-Fc captured on Protein A chip, TNF 1.25-40 nM, 1:1 model
Method: (§4) Multi cycle kinetics analysis of binding to hTNFR1, hTNFR2, mTNFR1 and mTNFR2 was performed on the 10 lead variants using a Biacore T200 (serial no. 1909913) instrument running Biacore T200 Evaluation Software V3.0.1 (Uppsala, Sweden) to characterise further the binding to these receptors.
(§5) As with the single cycle kinetics, receptor binding was assessed in two separate experiments. In the first set of experiments binding to hTNFR1 (Fc2), hTNFR2 (Fc3) and mTNFR1 (Fc4) was assessed. In the second set of experiments the extent of mTNF2 (Fc4) binding was assessed using hTNFR1 (Fc2) and hTNFR2 (Fc3) as controls. All receptors were diluted in running buffer to a concentration of ˜4 μg/mL and at the start of each cycle loaded onto Fc2, Fc3 and Fc4 of a Protein A CM5 chip and captured at a flow rate of 10 μL/min to give an RU of ˜40-100. The surface was then allowed to stabilise. All kinetic data was obtained using a flow rate of 75 μl/min to minimise any potential mass transfer effects. […] The association phase of TNF was monitored for 280 seconds and the dissociation phase was measured for 2100 seconds. […] Regeneration of the Protein A surface was conducted using two injections of 10 mM glycine-HCL pH 1.5 at the end of each cycle. The signal from the reference channel Fc1 was subtracted from that of Fc2, Fc3 and Fc4 to correct for differences in non-specific binding to a reference surface, and a global Rmax parameter was used in the 1-to-1 binding model.

[4] = biological target: T4, Fc tagged mouse TNFR1 (Sino Biological); experiment: as above
Method: as §4, §5

[5] = biological target: T3, Fc tagged human TNFR1 (Sino Biological); experiment: SPR, Biacore T200 single cycle kinetics, receptor-Fc captured on Protein A chip, TNF 1.67-15 nM
Method: as §1, §2

[6] = biological target: T4, Fc tagged mouse TNFR1 (Sino Biological); experiment: as above
Method: as §1, §2

[7] = biological target: T3, Fc tagged human TNFR1 (Sino Biological); experiment: SPR, Biacore single cycle kinetics, stability study, after 1 year at -80° C.
Method: as §2
(§6) At day zero (prior to freezing) and following thawing on ice after 3 months and 1 year the following assays were performed: [0341] SDS-PAGE [0342] OD280 nm [0343] Single cycle Biacore for binding to hTNFR1, hTNFR2 and mTNFR1

[8] = biological target: T4, Fc tagged mouse TNFR1 (Sino Biological); experiment: as above
Method: as §2, §6

[9] = biological target: T3, Fc tagged human TNFR1 (Sino Biological); experiment: SPR, Biacore single cycle kinetics, stability study, after 1 year at -20° C.
Method: as §2, §6

[10] = biological target: T4, Fc tagged mouse TNFR1 (Sino Biological); experiment: as above
Method: as §2, §6

[11] = biological target: T3, Fc tagged human TNFR1 (Sino Biological); experiment: SPR, Biacore single cycle kinetics, stability study, before freezing (t=0)
Method: as §2, §6

[12] = biological target: T4, Fc tagged mouse TNFR1 (Sino Biological); experiment: as above
Method: as §2, §6

| binding result [1] | binding result [2] | Kd [3] | Kd [4] | Kd [5] | Kd [6] | Kd [7] | Kd [8] | Kd [9] | Kd [10] | Kd [11] | Kd [12] | Binder |
| --- | --- | --- | --- | --- | --- | --- | --- | --- | --- | --- | --- | --- |
| binds | binds |  |  |  |  |  |  |  |  |  |  | mouse TNF (mTNF), soluble protein expressed from pANT65 (ligand, UniProt P06804 80-235, looked up, not shown: C-terminal FLAG tag and His6 tag from vector pANT65) LRSSSQNSSDKPVAHVVANHQVEEQLEWLSQRANALLANGMDLKDNQLVVPADGLYLVYSQVLFKGQGCPDYVLLTHTVSRFAISYQEKVNLLSAVKSPCPKDTPEGAELKPWYEPIYLGGVFQLEKGDQLSAEVNLPKYLDFAESGQVYFGVIAL |
|  | no binding (tested: 15 nM) | 0.11 nM | 0.153 nM | 0.0195 nM | 0.132 nM |  |  |  |  |  |  | TNF mutein B4 (ligand, Human TNF mutein, SESHDG at positions 84-89; not shown: C-terminal FLAG tag and His6 tag from vector pANT65) VRSSSHTPSDKPVAHVVANPQAEGQLQWLNRRANALLANGVELRDNQLVVPSEGLYLIYSQVLFKGQGCPSTHVLLTHTISRISESHDGKVNLLSAIKSPCQRETPEGAEAKPWYEPIYLGGVFQLEKGDRLSAEINRPDYLDFAESGQVYFGIIAL |
| no binding (tested: 15 nM) | no binding (tested: 15 nM) | 0.339 nM | 0.59 nM | 0.0169 nM | 0.304 nM | 0.0667 nM | 0.0474 nM | 0.0526 nM | 0.711 nM | 0.0969 nM | 0.067 nM | TNF mutein B6 (ligand, Human TNF mutein, TGTYSY at positions 84-89; not shown: C-terminal FLAG tag and His6 tag from vector pANT65) VRSSSRTPSDKPVAHVVANPQAEGQLQWLNRRANALLANGVELRDNQLVVPSEGLYLIYSQVLFKGQGCPSTHVLLTHTISRITGTYSYKVNLLSAIKSPCQRETPEGAEAKPWYEPIYLGGVFQLEKGDRLSAEINRPDYLDFAESGQVYFGIIAL |
| no binding (tested: 15 nM) |  | 0.462 nM | 5.08 nM | 0.635 nM | 7.35 nM | 0.023 nM | 0.398 nM | 0.0271 nM | 0.527 nM | 0.012 nM | 0.11 nM | TNF mutein F3 (ligand, Human TNF mutein, TTTYRL at positions 84-89; not shown: C-terminal FLAG tag and His6 tag from vector pANT65) VRSSSRTPSDKPVAHVVANPQAEGQLQWLNRRANALLANGVELRDNQLVVPSEGLYLIYSQVLFKGQGCPSTHVLLTHTISRITTTYRLKVNLLSAIKSPCQRETPEGAEAKPWYEPIYLGGVFQLEKGDRLSAEINRPDYLDFAESGQVYFGIVAL |
| no binding (tested: 15 nM) | no binding (tested: 15 nM) | 0.0591 nM | 0.289 nM | 0.0199 nM | 0.128 nM | 0.0446 nM | 0.0977 nM | 0.0493 nM | 0.115 nM | 0.0355 nM | 0.0771 nM | TNF mutein B5 (ligand, Human TNF mutein, TGTYVD at positions 84-89; not shown: C-terminal FLAG tag and His6 tag from vector pANT65) VHSSSRTPSDKPVAHVVANPQAEGQLQWLNRRANALLANGVELRDNQLVVPSEGLYLIYSQVLFKGQGCPSTHVLLTHTISRITGTYVDKVNLLSAIKSPCQRETPEGAEAKPWYEPIYLGGVFQLEKGDRLSAEINRPDYLDFAESGQVYFGIIAL |
| no binding (tested: 15 nM) | no binding (tested: 15 nM) | 0.0465 nM | 0.208 nM | 0.0424 nM | 0.0827 nM | 0.0353 nM | 0.165 nM | 0.0262 nM | 0.111 nM | 0.022 nM | 0.116 nM | TNF mutein F7 (ligand, Human TNF mutein, SETVVG at positions 84-89; not shown: C-terminal FLAG tag and His6 tag from vector pANT65) VHSSSRTPSDKPVAHVVANPQAEGQLQWLNRRANALLANGVELRDNQLVVPSEGLYLIYSQVLFKGQGCPSTHVLLTHTISRISETVVGKVNLLSAIKSPCQRETPEGAEAKPWYEPIYLGGVFQLEKGDRLSVEINRPDYLDFAESGQVYFGIIAL |
| no binding (tested: 15 nM) | no binding (tested: 15 nM) | 0.0306 nM | 0.208 nM | 0.0129 nM | 0.0323 nM |  |  |  |  |  |  | TNF mutein C4 (ligand, Human TNF mutein, SHSVEG at positions 84-89; not shown: C-terminal FLAG tag and His6 tag from vector pANT65) VRSSSRTPSDKPVAHVVANPQAEGQLQWLNRRANALLANGVELRDNQLVVPSEGLYLIYSQVLFKGQGCPSTHVLLTHTISRISHSVEGKVNLLSAIKSPCQRETPEGAEAKPWYEPIYLGGVFQLEKGDRLSAEINRPDYLDFAESGQVYFGIIAL |
